Key:
Hu FcgRIIA_R167 (human) = Hu FcgRIIA_R167 (human) (UniProt P12318); experiment: kinetics, antibody captured on protein A/G chip, FcγR injected as analyte
Hu FcγRIIβ (human) = Hu FcγRIIβ (human) (UniProt P31994); experiment: as above
[1] = target: human FcγRIIβ on CHOK1 cells (human) (UniProt P31994); experiment: ratio of flow cytometry EC50s, reference FcγRIIα (R131) on CHOK1 cells

Chain of UniProt P12318 (P12318 36-218 H167R limits assumed): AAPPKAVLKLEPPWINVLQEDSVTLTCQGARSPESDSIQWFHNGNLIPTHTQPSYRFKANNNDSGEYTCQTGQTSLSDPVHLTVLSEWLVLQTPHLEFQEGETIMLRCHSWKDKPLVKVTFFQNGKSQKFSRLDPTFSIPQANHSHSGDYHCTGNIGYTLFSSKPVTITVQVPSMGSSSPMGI

- Fold (KD(IgG WT)/KD(variants)) (Hu FcgRIIA_R167 (human)): < 0.3 fold
- Kd (Hu FcgRIIA_R167 (human)): > 5 µM
- Fold (KD(IgG WT)/KD(variants)) (Hu FcγRIIβ (human)): 3.18 fold
- IIa/IIb (ratio of EC50) [1]: 77.8
Substance: IgG1 P238D (antibody)
